Laboratory results published in patent US20050059087A1 (Amgen, published 2005).
No end group written: not given here.

T1: EGFRvIII peptide-OVA (PEP3 14-mer conjugated to ovalbumin) (human, also: conjugated to OVA, chemistry not given here)
T1 construct: also called VIII-pep-OVA; muEGFr
T1 peptide: LEEKKGNYVVTDHC

T2: Pep-3, NH2-LEEKKGNYVVTDHG-OH (human)
T2 construct: Free peptide used in Biacore and KinExA (MW 1590 Da)
T2 peptide: H-LEEKKGNYVVTDHG-OH


Assays:
[1] = target: T3, EGFRvIII, full length, expressed by transfected cells (NR6 M, H1477, 300.19/EGFRvIII) (human, UniProt P00533 298-1210); assay: FACS on NR6 M cells, antibody at 0.25 µg/ml with SS Alexa anti-human IgG Fab, 37° C. for 1 hr, no glutathione (total cell-associated fluorescence)
T3 construct: Also used here for Western blots of H1477 lysate; also called native EGFRvIII; mutant EGFR
Method: XenoMax derived IgG1 recombinant antibodies were expressed, purified and quantitated as described previously. Antibodies were further assayed for their ability to internalize the EGFRvIII receptor in NR6 M cells. […] The cells were washed with cold 10% FCS in PBS and secondary antibody (SS Alexa antihuman IgG Fab) at 3 μg/ml Fab was added and incubated for 7 mins on ice. The cells were washed with cold 10% FCS in PBS once and then resuspended in cold media. Next, two sets of the triplicate were incubated at 37° C. and the remaining set was incubated at 4° C. for 1 hr. After that the cells incubated at 4° C. and one set of the cells incubated at 37° C. were treated with glutathione (as previously mentioned) for 1 hr on ice. Then the cells were washed and resuspended in 100 μl of cold 1% FCS in PBS and analyzed by FACS. The % internalization was calculated from the geometric mean obtained from the FACS analysis [(mean at 37° C. with glutathione—mean at 4° C. with glutathione)/(mean at 37° C. without glutathione—mean at 4 C with glutathione)].

[2] = target: T3, EGFRvIII, full length, expressed by …; assay: cell-based or functional assay
[3] = target: T4, EGFRvIII-rabbit Fc fusion protein (human; rabbit, UniProt P00533 298-645); assay: ELISA, minilipofection supernatant titrated 1:2 on EGFRvIII-Rab Ig Fc fusion protein (1.5 ug/ml)
T4 construct: made in 293F cells; also called EGFRvIII-RbFc; EGFRvIII-Rab Ig Fc fusion protein; not shown: rabbit IgG Hinge-CH2-CH3 (721 bp fragment)
Method: The secretion ELISA tests were performed as follows. […] The plates were washed five times with dH₂O. Recombinant antibodies were titrated 1:2 for 7 wells from the undiluted minilipofection supernatant. The plates were washed five times with dH₂O. A goat anti-human IgG Fc-specific HRP-conjugated antibody was added at a final concentration of 1 μg/mL for 1 hour at RT for the secretion plates and binding plates detected with 1 μg/ml Rb anti Hu Fc for 1 hour at room temperature. The plates were washed five times with dH₂O. The plates were developed with the addition of TMB for 30 minutes and the ELISA was stopped by the addition of 1 M phosphoric acid. Each ELISA plate was analyzed to determine the optical density of each well at 450 nm.

[4] = target: T1, EGFRvIII peptide-OVA (PEP3 14-mer …); assay: XenoMax screening
[5] = target: T2, Pep-3, NH2-LEEKKGNYVVTDHG-OH; assay: Biacore 2000 SPR, mAb immobilised, pep-3 analyte
Excerpt: The first step in these examples involved the immobilization of 5,600 resonance units (RU) to 8,000 RU of each mAb tested to one flow cell (Fc) of a CM5 sensor chip using standard EDC/NHS coupling chemistry. […] Three CM5 sensor chips were used in total to immobilize all mutant mAbs with a unique mAb immobilized to each flow cell. […] Biacore 2000 optical biosensors were used for all studies.

| Binder | FACS Geometric mean (without glutathione, 37° C.) [1] [geometric mean] | % internalization [2] [%] | FACS Geometric mean, With glutathione 4° C. [2] [geometric mean] | FACS Geometric mean, With glutathione 37° C. [2] [geometric mean] | Titer, antigen binding [3] [reciprocal dilution] | Kd [5] [nM] | koff [5] [s⁻¹] | kon [5] [M⁻¹ s⁻¹] | further results |
| --- | --- | --- | --- | --- | --- | --- | --- | --- | --- |
| SC-EGFRvIII-XG2-150 (antibody, human IgG1, V domains shown, XenoMax-derived from an XMG2 mouse; also called sc150; 182D5) VH: QVQLQQSGPGLVKPSQTLSLTCAISGDSVSSYSSAWNWIRQSPSRGLEWLGRAYHRSRWYYEYAVSVKSRINITPDTSKNQFSLQLNSVTPEDTAVYYCARGSRFDYWGQGTLVTVSS VL: DIVMTQTPLSSPVTLGQPASISCRSSQSLVHRDGNTYLSWLQQRPGQPPRLLIYKISNRFSGVPDRFSGSGAGTDFTLKISRVEAEDVGIYFCMHTTQFPWTFGQGTRVEIK | 20.3 | 20 | 4.66 | 7.78 | > 64 | – | – | – | – |
| SC-EGFRvIII-XG2-170 (antibody, human IgG1, V domains shown, XenoMax-derived from an XMG2 mouse; also called SC170; sc170) VH: QVQLQQSGPGLVKPSQTLSLTCAISGDSVSSNNAAWNWIRQSPARGLEWLGRTYYRSKWYNDYVVSVKSRITINPDTSKNQFSLQLNSVTPEDTAVYYCVRATAFDYWGQGTLVTVSS VL: AIVLTQTPLSSPVTLGQPASISCRSSQSLVHRDGNTYLSWLQQRPGQPPRLLIYKISNRFSGVPDRFSGSGAGTDFTLKISRVEPDDVGVYYCMHTTQLPWTFGQGTKVEIK | 20 | 20.1 | 4.67 | 7.75 | > 64 | – | – | – | – |
| SC-EGFRvIII-XG1-318 (antibody, human IgG1, V domains shown, XenoMax-derived; also called 141A10) VH: QVQLVESGGGVVQPGRSLRLSCVASGFTLSSYGMHWVRQAPGKGLEWVAVTSYDGSKKDYADSVKGRFTISRDNSKNTLYLQMNSLRAEDTAVYYCVSEGYCDSSSCYKYYYYGMDVWGQGTTVTVSS VL: DIVMTQSPLSLPVTPGEPASISCRSSQSLLYRNGNNYLDWYLQRPGQSPQLLIYLGSNRASGVPDRFSGSGSGTDFTLKISRVEAEDVGVYYCMQALQTPRTFGQGTKVEIK | – | – | – | – | 64 | – | – | – | – |
| SC-EGFRvIII-XG1-333 (antibody, human IgG1, V domains shown, XenoMax-derived) VH: QVQLVESGGGVVQPGRSLRLSCVASGFTLSSYGMHWVRQALGKGLEWVAVTSYDGSKKDYADSVKGRFTISRDNSKNTLYLQMNSLRAEDTAVYYCVSEGYCDSTSCYKYYYYGMDVWGQGTTVTVSS VL: DIVMTQSPLSLPVTPGEPASISCRSSQSLLYRNGNNYLDWYLQRPGQSPQLLIYLGSNRASGVPDRFSGSGSGTDFTLKISRVEAEDVGVYYCMQALQTPRTFGQGTKVEIK | – | – | – | – | > 64 | – | – | – | – |
| SC-EGFRvIII-XG1-211 (antibody, V domains shown, also called SC211; sc211) VH: QVQLVESGGGVVQPGRSLRLSCVASGFTLSSYGMHWVRQAPGKGLEWVAVTSYDGSKKDYADSAKGRFTISRDNSKNTLYLQMNSLRAEDTAVYYCVSEGYCSSSSCYKYYYYGMDVWGQGTTVTVSS VL: DIVMTQSPLSLPVTPGEPASISCRSSQSLLYRNGNNYLDWYLQRPGQSPQLLIYLGSNRASGVPDRFSGSGSGTDFTLKISRVEAEDVGVYYCMQALQTPRTFGQGTKVEIK | 20.8 | 21.6 | 4.78 | 8.23 | > 64 | – | – | – | – |
| SC-EGFRvIII-XG1-342 (antibody, human IgG1, V domains shown, XenoMax-derived; also called 124D4) VH: QVQLVESGGGVVQPGRSLRLSCVASGFTLSSYGMHWVRQAPGKGLEWVAVTSYDGSKKDYADSVKGRFTISRDNSKNTLYLQMNSLRAEDTAVYYCVSEGYCDSTSCYKYYYYGMDVWGQGTTVTVSS VL: DIVMTQSPLSLPVTPGEPASISCRSSQSLLYRNGNNYLDWYLQRPGQSPQLLIYLGSNRASGVPDRFSGSGSGTDFTLKISRVEAEDVGVYYCMQALQTPRTFGQGTKVEIK | – | – | – | – | > 64 | – | – | – | – |
| SC-EGFRvIII-XG1-123/124 (antibody, human IgG1, V domains shown, also called 129A7) VH: QVQLVESGGGVVQPGRSLRLSCAASGFTLSSYGMHWVRQAPGKGLEWVAVMSYDGSKEDYADSVKGRFTISRDNSENTLYLQMNSLRAEDTAVYYCVSEGYCSSRSCYKYYYYGMDVWGQGTTVTVSS VL: DIVMTQSPLSLPVTPGEPASISCRSSQSLLYRNGNNYLDWYLQKPGQSPQLLIYLGSNRASGVPDRFSGSGSGTDFTLNISRVEAEDVGHYYCMQALQTPRTFGQGTKVEIK | – | – | – | – | > 64 | – | – | – | – |
| SC-EGFRvIII-XG1-250 (antibody, V domains shown, also called SC250; sc250) VH: EGQLLESGGGWVQPGESLRLSCAASGFTFSSYAMSWVRQAPGKGLEWVSAISGSGGSTNYADSVKGRFTISRDNSKNTLYLQVNSLRVEDTAVYYCAGSSGWSEYWGQGTLVTVSS VL: DIQMTQSPSSLSASVGDSVTITCRTSQGIRKNLGWYQQKPGKAPKRLIYAASSLQSGVPSRFSGSGSGTEFTLTISRLQPEDFATYYCLQHHSYPLTFGGGTRVEIR | 24.1 | 16.7 | 4.84 | 8.07 | > 64 | – | – | – | binding result [4]: binds |
| 13.1.2 variant L99H-9.2 (antibody, V domains shown, also called Leu99His; 99His) VH: QVQLVESGGGVVQPGRSLRLSCAASGFTFSSYGMHWVRQAPGKGLEWVAVIWYDGSNKYYVDSVKGRFTISRDNSKNTLYLQMNSLRAEDTAVYYCARDGWQQLAPFDYWGQGTLVTVSS VL: not shown | – | – | – | – | – | 395 | 0.033 | 83400 | – |
| 13.1.2 variant L217N-2.1 (antibody, V domains shown, also called Leu217Asn; 217Asn) VH: QVQLVESGGGVVQPGRSLRLSCAASGFTFSSYGMHWVRQAPGKGLEWVAVIWYDGSNKYYVDSVKGRFTISRDNSKNTLYLQMNSLRAEDTAVYYCARDGWQQNAPFDYWGQGTLVTVSS VL: not shown | – | – | – | – | – | 185 | 0.04 | 220000 | – |
| 13.1.2 variant Y172R-1.2 (antibody, V domains shown, also called Tyr172Arg; 172Arg) VH: QVQLVESGGGVVQPGRSLRLSCAASGFTFSSYGMHWVRQAPGKGLEWVAVIWYDGSNKRYVDSVKGRFTISRDNSKNTLYLQMNSLRAEDTAVYYCARDGWQQLAPFDYWGQGTLVTVSS VL: not shown | – | – | – | – | – | 927 | 0.076 | 82200 | – |
| 13.1.2 variant L217Q-10.1 (antibody, V domains shown, also called Leu217Gln; 217Gln) VH: QVQLVESGGGVVQPGRSLRLSCAASGFTFSSYGMHWVRQAPGKGLEWVAVIWYDGSNKYYVDSVKGRFTISRDNSKNTLYLQMNSLRAEDTAVYYCARDGWQQQAPFDYWGQGTLVTVSS VL: not shown | – | – | – | – | – | 92 | 0.019 | 204000 | – |
| 13.1.2 variant N35G-3.1 (antibody, V domains shown, also called Asn35Gly; 35Gly) VH: QVQLVESGGGVVQPGRSLRLSCAASGFTFSSYGMHWVRQAPGKGLEWVAVIWYDGSNKYYVDSVKGRFTISRDNSKNTLYLQMNSLRAEDTAVYYCARDGWQQLAPFDYWGQGTLVTVSS VL: DIVMTQTPLSSPVTLGQPASISCRSSQSLVHSDGGTYLSWLHQRPGQPPRLLIYKISNRFSGVPDRFSGSGAGTAFTLKISRVEAEDVGVYYCMQATQLPRTFGQGTKVEIKR | – | – | – | – | – | 204 | 0.03 | 150000 | – |
